Measurements as given in publication PMC10196804 (The Journal of Biological Chemistry, 2023).
Positions count from the first letter of the chain named.

T1: His-HERC2 (amino acids 2540–2700) (human, UniProt O95714 2540-2700)
T1 construct: source: E. coli BL21-CodonPlus (DE3)-RIPL, purified (nickel–nitrilotriacetic acid beads, PD-10 desalting)
T1 sequence (looked up): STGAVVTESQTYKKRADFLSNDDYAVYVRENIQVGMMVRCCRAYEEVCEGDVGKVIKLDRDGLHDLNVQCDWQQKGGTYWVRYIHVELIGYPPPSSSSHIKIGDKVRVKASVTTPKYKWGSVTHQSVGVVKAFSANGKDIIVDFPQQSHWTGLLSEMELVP

B1: GST-NCOA4 (amino acids 383–522) C418S (domain or fragment, human, UniProt Q13772 383-522, looked up)
chain: SMVTEDWLVQNHQDPCKVEEVCRANEPCTSFAECVSDENCEKEALYKWLLKKEGKDKNGMPVEPKPEPEKHKDSLNMWLCPRKEVIEQTKAPKAMTPSRIADSFQVIKNSPLSEWLIRPPYKEGSPKEVPGTEDRAGKQK
notes: C418S; Absorption at 330 and 420 nm not attenuated (Fe–S cluster kept); source: E. coli BL21-CodonPlus (DE3)-RIPL, purified (Glutathione Sepharose, PD-10 desalting)
B2: GST-NCOA4 (amino acids 383–522) WT (domain or fragment, human, UniProt Q13772 383-522, looked up)
chain: B1 chain with S36C
notes: Vector pGEX6p-1; Bacteria were grown with Cys and FAC; the UV–visible spectrum resembles that of 2Fe–2S cluster proteins; also called glutathione S-transferase (GST)-fused NCOA4 (amino acids 383–522); source: E. coli BL21-CodonPlus (DE3)-RIPL, purified (Glutathione Sepharose, PD-10 desalting)

Biological target: T1, His-HERC2 (amino acids 2540–2700)
Assay: pull-down; GST-tagged proteins (2 μg) and His-HERC2 (amino acids 2540–2700) (2.8 μg) in 20 mM Tris–HCl pH 7.5, 150 mM NaCl, 0.1% Triton X-100, 1 mM DTT; Glutathione Sepharose beads, 1 h at 4 °C; gel stained with CBB
Conditions: both partners purified

Row | Binder | binding result
1 | B1 | binds
2 | B2 | binds
